Test results as given in patent US20110294748A1 (Janssen / Centocor, published 2011).

B1: peptide-Alkaline phosphatase-His6 fusion protein of clone 9 (other)
chain: FTCAVYSLSELDCRDTPEMPVLENRAAQGDITTPGGARRLTGDQTAALRDSLSDKPAKNIILLIGDGMGDSEITAARNYAEGAGGFFKGIDALPLTGQYTHYALNKKTGKPDYVTDSAASATAWSTGVKTYNGALGVDIHEKDHPTILEMAKAAGLATGNVSTAELQGATPAALVAHVTSRKCYGPSATSEKCPGNALEKGGKGSITEQLLNARADVTLGGGAKTFAETATAGEWQGKTLREQAQTRGYQLVSDAASLNSVTEANQQKPLLGLFADGNMPVRWLGPKATYHGNIDKPAVTCTPNPQRNDSVPTLAQMTDKAIELLSKNEKGFFLQVEGASIDKQNHAANPCGQIGETVDLDEAVQRALEFAKKEGNTLVIVTADHAHASQIVAPDTKAPGLTQALNTKDGAVMVMSYGNSEEDSQEHTGSQLRIAAYGPHAANVVGLTDQTDLFYTMKAALGLKVPGGSGGGSGGGSGGGSGTPEMPVLENRAAQGDITTPGGARRLTGDQTAALRDSLSDKPAKNIILLIGDGMGDSEITAARNYAEGAGGFFKGIDALPLTGQYTHYALNKKTGKPDYVTDSAASATAWSTGVKTYNGALGVDIHEKDHPTILEMAKAAGLATGNVSTAELQGATPAALVAHVTSRKCYGPSATSEKCPGNALEKGGKGSITEQLLNARADVTLGGGAKTFAETATAGEWQGKTLREQAQTRGYQLVSDAASLNSVTEANQQKPLLGLFADGNMPVRWLGPKATYHGNIDKPAVTCTPNPQRNDSVPTLAQMTDKAIELLSKNEKGFFLQVEGASIDKQNHAANPCGQIGETVDLDEAVQRALEFAKKEGNTLVIVTADHAHASQIVAPDTKAPGLTQALNTKDGAVMVMSYGNSEEDSQEHTGSQLRIAAYGPHAANVVGLTDQTDLFYTMKAALGLKVPGNSHHHHHH
notes: Tested as bacterial culture supernatant; also called peptide-AP fusion clone 9
B2: peptide-Alkaline phosphatase-His6 fusion protein of clone 8 (other)
chain: PVCPSFCYDQYVCPTTPEMPVLENRAAQGDITTPGGARRLTGDQTAALRDSLSDKPAKNIILLIGDGMGDSEITAARNYAEGAGGFFKGIDALPLTGQYTHYALNKKTGKPDYVTDSAASATAWSTGVKTYNGALGVDIHEKDHPTILEMAKAAGLATGNVSTAELQGATPAALVAHVTSRKCYGPSATSEKCPGNALEKGGKGSITEQLLNARADVTLGGGAKTFAETATAGEWQGKTLREQAQTRGYQLVSDAASLNSVTEANQQKPLLGLFADGNMPVRWLGPKATYHGNIDKPAVTCTPNPQRNDSVPTLAQMTDKAIELLSKNEKGFFLQVEGASIDKQNHAANPCGQIGETVDLDEAVQRALEFAKKEGNTLVIVTADHAHASQIVAPDTKAPGLTQALNTKDGAVMVMSYGNSEEDSQEHTGSQLRIAAYGPHAANVVGLTDQTDLFYTMKAALGLKVPGGSGGGSGGGSGGGSGTPEMPVLENRAAQGDITTPGGARRLTGDQTAALRDSLSDKPAKNIILLIGDGMGDSEITAARNYAEGAGGFFKGIDALPLTGQYTHYALNKKTGKPDYVTDSAASATAWSTGVKTYNGALGVDIHEKDHPTILEMAKAAGLATGNVSTAELQGATPAALVAHVTSRKCYGPSATSEKCPGNALEKGGKGSITEQLLNARADVTLGGGAKTFAETATAGEWQGKTLREQAQTRGYQLVSDAASLNSVTEANQQKPLLGLFADGNMPVRWLGPKATYHGNIDKPAVTCTPNPQRNDSVPTLAQMTDKAIELLSKNEKGFFLQVEGASIDKQNHAANPCGQIGETVDLDEAVQRALEFAKKEGNTLVIVTADHAHASQIVAPDTKAPGLTQALNTKDGAVMVMSYGNSEEDSQEHTGSQLRIAAYGPHAANVVGLTDQTDLFYTMKAALGLKVPGNSHHHHHH
notes: Tested as bacterial culture supernatant; also called peptide-AP fusion clone 8
B3: peptide-Alkaline phosphatase-His6 fusion protein of clone 11 (other)
chain: HTCFYPTLMPPELCFDTPEMPVLENRAAQGDITTPGGARRLTGDQTAALRDSLSDKPAKNIILLIGDGMGDSEITAARNYAEGAGGFFKGIDALPLTGQYTHYALNKKTGKPDYVTDSAASATAWSTGVKTYNGALGVDIHEKDHPTILEMAKAAGLATGNVSTAELQGATPAALVAHVTSRKCYGPSATSEKCPGNALEKGGKGSITEQLLNARADVTLGGGAKTFAETATAGEWQGKTLREQAQTRGYQLVSDAASLNSVTEANQQKPLLGLFADGNMPVRWLGPKATYHGNIDKPAVTCTPNPQRNDSVPTLAQMTDKAIELLSKNEKGFFLQVEGASIDKQNHAANPCGQIGETVDLDEAVQRALEFAKKEGNTLVIVTADHAHASQIVAPDTKAPGLTQALNTKDGAVMVMSYGNSEEDSQEHTGSQLRIAAYGPHAANVVGLTDQTDLFYTMKAALGLKVPGGSGGGSGGGSGGGSGTPEMPVLENRAAQGDITTPGGARRLTGDQTAALRDSLSDKPAKNIILLIGDGMGDSEITAARNYAEGAGGFFKGIDALPLTGQYTHYALNKKTGKPDYVTDSAASATAWSTGVKTYNGALGVDIHEKDHPTILEMAKAAGLATGNVSTAELQGATPAALVAHVTSRKCYGPSATSEKCPGNALEKGGKGSITEQLLNARADVTLGGGAKTFAETATAGEWQGKTLREQAQTRGYQLVSDAASLNSVTEANQQKPLLGLFADGNMPVRWLGPKATYHGNIDKPAVTCTPNPQRNDSVPTLAQMTDKAIELLSKNEKGFFLQVEGASIDKQNHAANPCGQIGETVDLDEAVQRALEFAKKEGNTLVIVTADHAHASQIVAPDTKAPGLTQALNTKDGAVMVMSYGNSEEDSQEHTGSQLRIAAYGPHAANVVGLTDQTDLFYTMKAALGLKVPGNSHHHHHH
notes: Tested as bacterial culture supernatant; also called peptide-AP fusion clone 11
B4: peptide-Alkaline phosphatase-His6 fusion protein of clone 12 (other)
chain: SNCPPLDMRLTELCVMTPEMPVLENRAAQGDITTPGGARRLTGDQTAALRDSLSDKPAKNIILLIGDGMGDSEITAARNYAEGAGGFFKGIDALPLTGQYTHYALNKKTGKPDYVTDSAASATAWSTGVKTYNGALGVDIHEKDHPTILEMAKAAGLATGNVSTAELQGATPAALVAHVTSRKCYGPSATSEKCPGNALEKGGKGSITEQLLNARADVTLGGGAKTFAETATAGEWQGKTLREQAQTRGYQLVSDAASLNSVTEANQQKPLLGLFADGNMPVRWLGPKATYHGNIDKPAVTCTPNPQRNDSVPTLAQMTDKAIELLSKNEKGFFLQVEGASIDKQNHAANPCGQIGETVDLDEAVQRALEFAKKEGNTLVIVTADHAHASQIVAPDTKAPGLTQALNTKDGAVMVMSYGNSEEDSQEHTGSQLRIAAYGPHAANVVGLTDQTDLFYTMKAALGLKVPGGSGGGSGGGSGGGSGTPEMPVLENRAAQGDITTPGGARRLTGDQTAALRDSLSDKPAKNIILLIGDGMGDSEITAARNYAEGAGGFFKGIDALPLTGQYTHYALNKKTGKPDYVTDSAASATAWSTGVKTYNGALGVDIHEKDHPTILEMAKAAGLATGNVSTAELQGATPAALVAHVTSRKCYGPSATSEKCPGNALEKGGKGSITEQLLNARADVTLGGGAKTFAETATAGEWQGKTLREQAQTRGYQLVSDAASLNSVTEANQQKPLLGLFADGNMPVRWLGPKATYHGNIDKPAVTCTPNPQRNDSVPTLAQMTDKAIELLSKNEKGFFLQVEGASIDKQNHAANPCGQIGETVDLDEAVQRALEFAKKEGNTLVIVTADHAHASQIVAPDTKAPGLTQALNTKDGAVMVMSYGNSEEDSQEHTGSQLRIAAYGPHAANVVGLTDQTDLFYTMKAALGLKVPGNSHHHHHH
notes: Tested as bacterial culture supernatant; also called peptide-AP fusion clone 12
B5: peptide-Alkaline phosphatase-His6 fusion protein of clone 14 (other)
chain: VECDTPSITFSPGLEALFWNTCSPTPEMPVLENRAAQGDITTPGGARRLTGDQTAALRDSLSDKPAKNIILLIGDGMGDSEITAARNYAEGAGGFFKGIDALPLTGQYTHYALNKKTGKPDYVTDSAASATAWSTGVKTYNGALGVDIHEKDHPTILEMAKAAGLATGNVSTAELQGATPAALVAHVTSRKCYGPSATSEKCPGNALEKGGKGSITEQLLNARADVTLGGGAKTFAETATAGEWQGKTLREQAQTRGYQLVSDAASLNSVTEANQQKPLLGLFADGNMPVRWLGPKATYHGNIDKPAVTCTPNPQRNDSVPTLAQMTDKAIELLSKNEKGFFLQVEGASIDKQNHAANPCGQIGETVDLDEAVQRALEFAKKEGNTLVIVTADHAHASQIVAPDTKAPGLTQALNTKDGAVMVMSYGNSEEDSQEHTGSQLRIAAYGPHAANVVGLTDQTDLFYTMKAALGLKVPGGSGGGSGGGSGGGSGTPEMPVLENRAAQGDITTPGGARRLTGDQTAALRDSLSDKPAKNIILLIGDGMGDSEITAARNYAEGAGGFFKGIDALPLTGQYTHYALNKKTGKPDYVTDSAASATAWSTGVKTYNGALGVDIHEKDHPTILEMAKAAGLATGNVSTAELQGATPAALVAHVTSRKCYGPSATSEKCPGNALEKGGKGSITEQLLNARADVTLGGGAKTFAETATAGEWQGKTLREQAQTRGYQLVSDAASLNSVTEANQQKPLLGLFADGNMPVRWLGPKATYHGNIDKPAVTCTPNPQRNDSVPTLAQMTDKAIELLSKNEKGFFLQVEGASIDKQNHAANPCGQIGETVDLDEAVQRALEFAKKEGNTLVIVTADHAHASQIVAPDTKAPGLTQALNTKDGAVMVMSYGNSEEDSQEHTGSQLRIAAYGPHAANVVGLTDQTDLFYTMKAALGLKVPGNSHHHHHH
notes: Tested as bacterial culture supernatant; also called peptide-AP fusion clone 14
B6: peptide-Alkaline phosphatase-His6 fusion protein of clone 16 (other)
chain: AGCPSPMPPVDPGFYSAIVQLCRETPEMPVLENRAAQGDITTPGGARRLTGDQTAALRDSLSDKPAKNIILLIGDGMGDSEITAARNYAEGAGGFFKGIDALPLTGQYTHYALNKKTGKPDYVTDSAASATAWSTGVKTYNGALGVDIHEKDHPTILEMAKAAGLATGNVSTAELQGATPAALVAHVTSRKCYGPSATSEKCPGNALEKGGKGSITEQLLNARADVTLGGGAKTFAETATAGEWQGKTLREQAQTRGYQLVSDAASLNSVTEANQQKPLLGLFADGNMPVRWLGPKATYHGNIDKPAVTCTPNPQRNDSVPTLAQMTDKAIELLSKNEKGFFLQVEGASIDKQNHAANPCGQIGETVDLDEAVQRALEFAKKEGNTLVIVTADHAHASQIVAPDTKAPGLTQALNTKDGAVMVMSYGNSEEDSQEHTGSQLRIAAYGPHAANVVGLTDQTDLFYTMKAALGLKVPGGSGGGSGGGSGGGSGTPEMPVLENRAAQGDITTPGGARRLTGDQTAALRDSLSDKPAKNIILLIGDGMGDSEITAARNYAEGAGGFFKGIDALPLTGQYTHYALNKKTGKPDYVTDSAASATAWSTGVKTYNGALGVDIHEKDHPTILEMAKAAGLATGNVSTAELQGATPAALVAHVTSRKCYGPSATSEKCPGNALEKGGKGSITEQLLNARADVTLGGGAKTFAETATAGEWQGKTLREQAQTRGYQLVSDAASLNSVTEANQQKPLLGLFADGNMPVRWLGPKATYHGNIDKPAVTCTPNPQRNDSVPTLAQMTDKAIELLSKNEKGFFLQVEGASIDKQNHAANPCGQIGETVDLDEAVQRALEFAKKEGNTLVIVTADHAHASQIVAPDTKAPGLTQALNTKDGAVMVMSYGNSEEDSQEHTGSQLRIAAYGPHAANVVGLTDQTDLFYTMKAALGLKVPGNSHHHHHH
notes: Tested as bacterial culture supernatant; also called peptide-AP fusion clone 16

Target: T1, soluble IGF1R (sIGF1R), extracellular domain of human insulin-like growth factor 1 receptor, carboxy-terminal … (human, UniProt P08069 31-932)
T1 construct: Bought from R&D Systems; GenBank NP-000866 is printed for the whole receptor; also called IFG1R
Assay: ELISA, culture supernatant on 2 µg/ml coated sIGF1R, Attophos detection
Description: The binding of purified peptide-AP fusion proteins to sIGF1R was assessed using ELISA against immobilized sIGF1R. Briefly, bacteria transformed with each peptide-AP fusion expression vector were grown overnight and the following day the cultures were clarified by centrifugation at 4,500 rpm, 4° C. The supernatants were collected and 75 μl of each supernatant was assayed for binding to 2 μg/ml sIGF1R immobilized on ELISA plates. The bound peptides were detected using the Attophos Substrate (Roche, Indianapolis, Ind.) following the manufacturer's recommendation and read using a Molecular Devices M5 plate reader.

Binder	binding result
B1	binds
B2	binds
B3	binds
B4	binds
B5	binds
B6	binds
